Data set [1] deals with T1, H-NS (Escherichia coli K1 (RS218?)) (UniProt P0ACF8).
T1 sequence: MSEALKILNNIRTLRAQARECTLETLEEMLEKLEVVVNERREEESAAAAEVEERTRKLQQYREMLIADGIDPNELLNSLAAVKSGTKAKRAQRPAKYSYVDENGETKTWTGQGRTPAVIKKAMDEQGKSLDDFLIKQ
The data set is described as follows: EMSA. Particulars: 10 mM Tris pH 7.5, 1 mM EDTA, 100 mM KCl, 0.1 mM DTT, 5% glycerol, 0.01 mg/mL BSA. (Mobility shift assays separate free from complexed probe on a gel.)

The subject of data set [2] is T2, YbdO (Escherichia coli K1 (RS218?)), ORF:f8d494c4.
T2 sequence: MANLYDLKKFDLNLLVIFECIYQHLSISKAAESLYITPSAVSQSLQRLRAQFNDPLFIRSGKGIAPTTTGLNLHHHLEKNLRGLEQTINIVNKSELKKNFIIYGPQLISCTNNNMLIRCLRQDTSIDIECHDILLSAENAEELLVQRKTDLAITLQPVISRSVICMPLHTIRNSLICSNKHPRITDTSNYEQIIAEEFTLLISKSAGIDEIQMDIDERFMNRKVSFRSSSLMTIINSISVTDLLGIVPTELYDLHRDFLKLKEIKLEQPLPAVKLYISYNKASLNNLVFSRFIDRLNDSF
The data set is described as follows: EMSA. The settings on record: 10 mM Tris pH 7.5, 1 mM EDTA, 100 mM KCl, 0.1 mM DTT, 5% glycerol, 0.01 mg/mL BSA; […].

The text below walks through data of paper PMC9141747.

As to “GCGGCCCCAGGCCGAGCCAGTTTACCCGCTCTGAGACCTGCGCCAGCTGGCAGGTCAGGCCAATCCGCGCCGGATGCGGTGTATCGCTTGCCACCGCAACATCCACATTGATGACCATCTCACCGTGCCCATCAATCCGGTAGG (double strand) [lacZ fragment]”, the binding entry in data set [1] (20 ng DNA in 20 uL, 25 C, 30 min, native 8% PAGE in 0.5x TBE, GelRed stain) is recorded as “no binding”; in data set [2], “no binding”. As for “ACATACTCCGTTGTATTGTCTCTTCCATAAATCATTCACTTGATCAATAATGTTGTTGTATTTATATGTATTATGTTTTTCTGCTTAACTTTGGATTAAGATTTTCTAAAATAGCATAGCTGTCAGGTGGGTTACGAGCAATTCATGCGTTTTTAGGATGGTTGAAAAGCAGAGAGAGATTTCAACCATCGATGAATTATATTCTATTTATTCCCCATAATGATATTAAGTGTTTTCTGATCGGGTAATCCGACGGCTTGTTGCAGGGTA (double strand) [PybdO]”, in data set [1] ([…]), the binding result is on record as “binds”. Regarding “TTTCCTGAGAAATTAACTCTGCATTCTAAAACGGCCAGTTTTCTGAAATTACCAGAAGACCGAATACATTCATGCCTGAAGAATGGATTAGAAGAAACGAGACGGAAATAGATCTATTTATCCCTGCGGAAATAATTTCTGCTGAAATTTTTTTGCGGCTATTAAAAAGGTCAAACCGTCTGAGTAAATTTTATCCAGTTACAAACAAGTATTACCTCCAGTGTATTGGTAGCTGTTAAGCCAAGGGCGGTAGCGTACCTGAAGAGATTAGGATCACATCATCAAATGG (double strand) [PkpsM]”, the binding entry in data set [2] is on record as “binds”.
